Experimental data from the RNAGym collection of RNA variant scans (doi:10.7554/elife.90254).

B1: LINE1-full (parent)
chain: UACGUAGGUGGUUUUCCCCUGAUAGUGCUAAGGGGGCCUGGAAGUUUGGACUGGGCAGAGCUCAACACAGCGUGGCAAAGUGGCUGUGGCUAGACUGCCUCUCUGGAUUCCUCGUCACUCAGCAGGGCAUCUCUGAGAGAAAUGCC

Variants of: B1
Assay: self-cleavage, relative activity (ratio to wild type); higher = more cleavage; in vitro, sequencing; the parent is a self-cleaving ribozyme

With UACGAAGGUGGUUUUCCCCUGAUAGUGCUAAGGGGGCCUGGAAGUUUGGACUGGGCAGAGCUCAACACAGCGUGGCAAAGUGGCUGUGGCUAGACUGCCUCCCUGGAUUCCUCGUCACUCAGCAGGGCAUCUCUGAGAGAAAUGCC [U5A U102C] as the variant, how does the self-cleavage read?
The self-cleavage was 0.95.

For UACGCAGGUGGUUUUCCCCUGAUAGUGCUAAGGGGGCCUGGAAGUUUGGACUGGGCAGAGCUCAACACAGCGUGGCAAAGUGGCUGUGGCUAGACUGCCUCUCUGGAUUCCUCGUCACUCAGCAGGGCAUCUCUGAGAGAAAUGCC [U5C], which self-cleavage is on record?
The self-cleavage was 1.06.

Which self-cleavage does the source give for UACGAAGGUGGUUUUCCCCUGAUAGUGCUAAGGGGGCCUGGAAGUUUGGACUGGGCAGAGCUCAACACAGCGUGGCAAAGUGGCAGUGGCUAGACUGCCUCUCUGGAUUCCUCGUCACUCAGCAGGGCAUCUCUGAGAGAAAUGCC [U5A U85A] here?
The self-cleavage was 0.14.

Which self-cleavage does the source give for UACGAAGGUGGUUUUCCCCUGAUAGUGCUAAGGGGGCCUGGAAGGUUGGACUGGGCAGAGCUCAACACAGCGUGGCAAAGUGGCUGUGGCUAGACUGCCUCUCUGGAUUCCUCGUCACUCAGCAGGGCAUCUCUGAGAGAAAUGCC [U5A U45G] here?
Its self-cleavage is 0.71.

For UACGAAGGUGGUUUUCCCCUGAUAGUGCUAAGGGGGCCUGGAAGCUUGGACUGGGCAGAGCUCAACACAGCGUGGCAAAGUGGCUGUGGCUAGACUGCCUCUCUGGAUUCCUCGUCACUCAGCAGGGCAUCUCUGAGAGAAAUGCC [U5A U45C], which self-cleavage is on record?
Its self-cleavage is 1.

Which self-cleavage does the source give for UACGCAGGUGGUUUUCCCCUGAUGGUGCUAAGGGGGCCUGGAAGUUUGGACUGGGCAGAGCUCAACACAGCGUGGCAAAGUGGCUGUGGCUAGACUGCCUCUCUGGAUUCCUCGUCACUCAGCAGGGCAUCUCUGAGAGAAAUGCC [U5C A24G] here?
Its self-cleavage is 0.86.

For UACGAAGGUGGGUUUCCCCUGAUAGUGCUAAGGGGGCCUGGAAGUUUGGACUGGGCAGAGCUCAACACAGCGUGGCAAAGUGGCUGUGGCUAGACUGCCUCUCUGGAUUCCUCGUCACUCAGCAGGGCAUCUCUGAGAGAAAUGCC [U5A U12G], which self-cleavage is on record?
Its self-cleavage is 0.6.

Which self-cleavage does the source give for UACGAAGGUGGCUUUCCCCUGAUAGUGCUAAGGGGGCCUGGAAGUUUGGACUGGGCAGAGCUCAACACAGCGUGGCAAAGUGGCUGUGGCUAGACUGCCUCUCUGGAUUCCUCGUCACUCAGCAGGGCAUCUCUGAGAGAAAUGCC [U5A U12C] here?
Its self-cleavage is 0.74.

With UACGAAGGUGGUUUUCCCCUGAUAGUGCUAAGGGGGCCGGGAAGUUUGGACUGGGCAGAGCUCAACACAGCGUGGCAAAGUGGCUGUGGCUAGACUGCCUCUCUGGAUUCCUCGUCACUCAGCAGGGCAUCUCUGAGAGAAAUGCC [U5A U39G] as the variant, how does the self-cleavage read?
Its self-cleavage is 0.22.

For UACGAAGGUGGUUUUCCCCUGAUAGUGCUAAGGGGGCCUGGAAGUUUGGACUGGGCAGAGCUCAACACAGCGGGGCAAAGUGGCUGUGGCUAGACUGCCUCUCUGGAUUCCUCGUCACUCAGCAGGGCAUCUCUGAGAGAAAUGCC [U5A U73G], which self-cleavage is on record?
Its self-cleavage is 0.48.

Which self-cleavage does the source give for UACGAAGGUGGUUUUCCCCUGAUAGUGCUAAGGGGGCCUGGAAGUUUGGACUGGGCAGAGCUCAACACAGCGAGGCAAAGUGGCUGUGGCUAGACUGCCUCUCUGGAUUCCUCGUCACUCAGCAGGGCAUCUCUGAGAGAAAUGCC [U5A U73A] here?
Its self-cleavage is 2.19.

With UACGAAGGUGGUUUUCCCCUGAUAGUGCUAAGGGGGCCUGGAAGUUUGGACUGGGCAGAGCUCAACACAGCGCGGCAAAGUGGCUGUGGCUAGACUGCCUCUCUGGAUUCCUCGUCACUCAGCAGGGCAUCUCUGAGAGAAAUGCC [U5A U73C] as the variant, how does the self-cleavage read?
Its self-cleavage is 1.41.

For UACGAAGGUGGUUUUCCCCUGAUAGUGCUAAGGGGGCCUGGAAGUUUGGACUGGGCAGAGCUCAACACAGCGUGGCAAAGUGGCUGUGGCUAGACUGCCUCUCUGGAUUCCUCGUCACUCAGCAGGGCAUCACUGAGAGAAAUGCC [U5A U132A], which self-cleavage is on record?
Its self-cleavage is 1.38.

Which self-cleavage does the source give for UACGCAGGUGGUUUUCCCCUGGUAGUGCUAAGGGGGCCUGGAAGUUUGGACUGGGCAGAGCUCAACACAGCGUGGCAAAGUGGCUGUGGCUAGACUGCCUCUCUGGAUUCCUCGUCACUCAGCAGGGCAUCUCUGAGAGAAAUGCC [U5C A22G] here?
The self-cleavage was 0.57.

Which self-cleavage does the source give for UACGAAGGUGGUUUUCCCCUGAUAGUGCUAAGGGGGCCUGGAAGUUUGGACUGGGCAGAGCACAACACAGCGUGGCAAAGUGGCUGUGGCUAGACUGCCUCUCUGGAUUCCUCGUCACUCAGCAGGGCAUCUCUGAGAGAAAUGCC [U5A U62A] here?
Its self-cleavage is 0.

Which self-cleavage does the source give for UACGAAGGUGGUUUUCCCCUGAUAGUGCUAAGGGGGCCUGGAAGUUUGGACUGGGCAGAGCUCAACACAGCGUGGCAAAGCGGCUGUGGCUAGACUGCCUCUCUGGAUUCCUCGUCACUCAGCAGGGCAUCUCUGAGAGAAAUGCC [U5A U81C] here?
The self-cleavage was 0.99.

Which self-cleavage does the source give for UACGAAGGUGGUUUUCCCCUGAUAGUGCUAAGGGGGCCUGGAAGUUUGGACUGGGCAGAGCUCAACACAGCGUGGCAAAGUGGCUGUGGCUAGACUGCCUCUCUGGAUUCCUCGUCACCCAGCAGGGCAUCUCUGAGAGAAAUGCC [U5A U119C] here?
The self-cleavage was 0.9.

For UACGAAGGUGGUUUUCCCCUGAUAGUGCUAAGGGGGCCUGGAAGUUUGGACUGGGCAGAGCUCAACACAGCGUGGCAAAGUGGCUGUGGCUAGACUGCCUCUCUGGAUUCCUCGUCACACAGCAGGGCAUCUCUGAGAGAAAUGCC [U5A U119A], which self-cleavage is on record?
The self-cleavage was 1.05.

Which self-cleavage does the source give for UACGAAGGUGGUUUUCCCCUGAUAGUGCAAAGGGGGCCUGGAAGUUUGGACUGGGCAGAGCUCAACACAGCGUGGCAAAGUGGCUGUGGCUAGACUGCCUCUCUGGAUUCCUCGUCACUCAGCAGGGCAUCUCUGAGAGAAAUGCC [U5A U29A] here?
The self-cleavage was 1.16.

For UACGAAGGUGGUUUUCCCCUGAUAGUGCUAAGGGGGCCUGGAAGUUUGGACUGGGCAGAGCUCAACACAGCGUGGCAAAGUGGCUGUGGCUAGACUGCCUCUCCGGAUUCCUCGUCACUCAGCAGGGCAUCUCUGAGAGAAAUGCC [U5A U104C], which self-cleavage is on record?
Its self-cleavage is 1.1.
